Tests used:
[1] = biological target: HLA-A*24 with C-terminal His tag (A*24-His Tg) (human); assay: SPR
[2] = biological target: HLA-A*33 with C-terminal His tag (A*33-His Tg) (human); assay: SPR

Work on “Toxoplasma antigenic peptide SAG2C, wild type” yielded an SPR response at 200 µM [1] of 15 RU and an SPR response at 200 µM [2] of 150 RU.

— publication doi:10.1101/2025.08.04.25332941
